Data from the nanobody polyreactivity screen of Harvey et al. (2022).

Assay: yeast display, Sf9 membrane polyspecificity reagent, FACS + sequencing; frameworks hold sequencing errors
In short: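 Galactose-induced (36–48 hours) yeast carrying a synthetic nanobody display library were exposed to 10% biotinylated, detergent-solubilized Sf9 membrane reagent at 4 °C for 1 hour. FACS followed streptavidin microbead enrichment, using low and high (top ~1%) gates for expression (anti-HA) and reagent binding (streptavidin). Colony PCR, MiSeq 2 × 250 sequencing and CDR-length filtering followed. Labels for polyreactivity reflect the gate of origin.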

Sequence	polyreactivity (PSR sort gate)
QVQLVESGGGLVQAGGSLRLSCAASGRIFVSNTMGWYRQAPGKERELVAVIRTDSGSTYYADSVKGRFTISRDNAKNTVYLQMNSLKPEDTAVYYCAKVAYFASYRTGFYYWGQGTQVTVSS	high polyreactivity
QVQLVESGGGLVQAGGSLRLSCAASGRILVRNAMGWYRQAPGKERELVAAIRRGTSTNYADSVKGRFTISRDNAKNTVYLQMNSLKPEDTAVYYCAVRAASPYLDGAWRRRYDYWGQGTQVTVSS	low polyreactivity
QVQLVESGGGLVQAGGSLRLSCAASGLTFSLNAMGGYRQAPGKERELVAAIRGSGGSTYYADSVKGRFTISRDNAKNTVYLQMNSLKPEDTAVYYCNADQLVWQRYGVLYEYDYWGQGTQVTVSS	high polyreactivity
QVQLVESGGGLVQAGGSLRISCAASGFIFYGNAMGWYIQAPGKERELVASITGGGRTYYADSVKGRFTISRDNAKNTVYLQMNSLKPEDTAVYYCATLLAYRLGSGYDSWGQGTQVTVSS	high polyreactivity
QVQLVESGGGLVQAGGSLRLSCAASGRIFLNYAMGWYRQAPGKERELDAAISRRGASTYYADSVKGRFTISRENAKNTVYLQMNSLKPEDTAVYYCATVPGKSGDYWGLGTQVTVSS	high polyreactivity
QVQLVDSGRGLVQAGGSLRLSCAASGFIFNPYVMGWYRQAPGKERELVAVITSGGSTNYADSVKGRFTISRDNAKNTVYLQMNSLKPEDTAVYYCNVDRRPYYVWRVTYDYWGQGTQVTVSS	low polyreactivity
QGQLVESGGGLVQAGGSLRLSCAASGRTFDSNAMGWYRQAPGKERELFAAISQRGGRTYYADSVKGRFTISRDNAKNTVYFQMNSLKQVYTAFYYCNKVGRRKLDYWGQGTQVTVSS	high polyreactivity
QVQLVESGGGLVQAGGSLRLSCAASGYAMGWYRQAPGKERELVAAISWSGDITYADSVKGRFTISRDNAKNTVYLQMNSLKPEDTAVYYCNADRYTGRDGEQSLDYWGQGTQVTVSS	low polyreactivity
QVQLVESGGGLVQAGGRLRLSCAASVGTFRPYAMGWYRQAPGKERELVAAISYTGSTYYADSVKGRFTISRDNAKNTVYLQMNSLKPADTAVYYCAKDFWYPPRFDYWGHGTQVTVSS	low polyreactivity
QVQLVESGGGLVQAGGSLRLSCAASGSIFTPYAMVWYRQAPGQERELVAAITSGGSTYYADSVKGRFTISRDNAKNTVYLQMNSLKPEDTAVYYCARRVWNYLRRSWYDYWGQGTQVTVSS	high polyreactivity
QVQLVESGGGLVQAGGRLRLSCAASGGTFSKNAIGWYRQAPGKEREFVAAISSTGGDTTYYADSVKGRFTISRDNAKNTVYLQMNSVKPEDTAFYYCNSDYIFWPWYDYWGQGTQVTVSS	low polyreactivity
QVQLVESGGGLVQAGGSLRLSCAASGSTFAIYAMGWYRQAPAKERELVAAITRGSTSYADSVKGRFTISRDNAKNTVYLQMNSLKPEDTAVYDCAADSSRYGVIRDFDYWGQGTQVTVSS	high polyreactivity
QVQLVESGGGLVQAGGSLRLSCAATGFTFSYYALGWYRQAPGKERELVAVISDRGGITYYADSVKGRFTISRDNAKNTVYLQMNSLKPEDTADYYCAAQNPRYNYRYYYWGHGTQVTVSS	low polyreactivity
QVQLVESGGGLVQAGGSLRLSSAASGRIFRGNVMGWYRQAPGKERELVAVIRSSSGRTYYADSVKGRFTISRDNAKNTVYLQMNSLKPEDTAVYDCAAKSVWGQGTQVTVSS	high polyreactivity
QVQLVESGGGLVQAGGSLRLSCAASGFTIFEDNAMGSYRQAPGKERELVAAITSGGSTNYADSVKGRFTISRDNAKNTVYLQMNSLKPEDTAVYYCAYDRVPLKTRFYYFPWGYDYWGQGTQVTVSS	low polyreactivity
QVQLQECGGGLVQAGGSLRLSCAASGHIFDADIMGWYRQAPGKERELVASVTDGGSTNYADSVKGRFTISRDNAKNTVYLQMNSLKPEATAVFYCAAIVYPDILTYFDYDYDYFYWGQGTQVTVGS	low polyreactivity

Sequence	polyreactivity (PSR sort gate)
QVQLVESGGGLVQAGGSLRLSCAASGRIFSSYDMGWYRQAPGKERELVAAISYSGGNTYYADSVKGRFTISRDTAKNTVYLQMNSLKPEDTAVYYCAARLPGYRYYYWGQGTQVTVSS	high polyreactivity
QVQLVESGGGLVQAGGSLRLSCAASGYTFHGYSMGWYRKAPGKERELVAVITQRGGSTSYADSVKGRFTISRDNAKNTVYLQMNSLKPEDTAVYYCNASAWLVVARTRYGYWGQGTQVTVSS	low polyreactivity
QVQLVESGGGLGQAGGSLRLSCAASGSIFDWYAMGWYRKAPGKEGELVAAISSGDSTYYADSVKGRFTISRDNAKNTFYLQMNSLKPEDTAVYYCAAVTKLSGIRYNYWGQGTQVTVSS	low polyreactivity
QVQLVESGGGLVQAGGSLRLSCAASGRTFYDNAMGWYRQAPGKERELVAAITKSGGRTYYADSVKGRFTISRDNAKNTVYLQMNSLKPEDTAVYYCAASWPNYLYEYWGQGTQVTVSS	high polyreactivity
QVQLVESGGGLVQAGGSLRLSCAASGRTFYANAMGWYRQAPGKERELVAAISSNGGSTYYADSVKGRFTISRDNAKNTVYLQMNSLKPEDTAVYYCAVVSRYKAWRKYDYWGQGTQVTVSS	high polyreactivity
QVHLVESGGGLVQAGGSLRLSCAASGSIIKYYAIGWYRQAPGKERELVAAISWRGGRTYADSVKGRFTISRDNAKNTVYIQMNSLKPEDTAVYYCATSSRYRYWHRYDYWGQGTQVTVSS	high polyreactivity
QVQLVESGGGLVQAGGTLRLICAASAFIFDGYTMGWYRQAPGTERELVAAISRSGGRTYYADSVKGRFTISRDNAKNTVYLQMNSQKPEDTAVYDCAVRYRQYSQNLASDYGYWGQGTQVTVSS	high polyreactivity
QVQLVESGGGLVHAGGSLRLSCAASGRTFYPNVMGWYRQAPGKERELVAAIRARGGSTYYADSVKGRFTISRDNAKNTVYLQMNSLKPEDTAVYYCARDTGDYLQFDYWGQGTQVTVSS	high polyreactivity
QVQLVESGGGLVQAGGSLRLSCAASGIIFRPYAMGWYRQAPGKERELVAAITWSGTSTYYADSVKGRFTISRDNAKNTVYLQMNSLKPEDTAVYYCAARNVFQSVHLRGGYWGQGTQVTVSS	high polyreactivity
QVQLVESGGGLVQAGGSLRLSCAAYGRTIRYYSMGRYRQAPAKERELVATISRRSGNTYYADSVKGRFTLSRDNAKNTVYLKMNSLKPEDTAVYYCAVRYFGLYNYDYWGQGTQVTVSS	high polyreactivity
QVQLVESGGGLVQAGGSLRLSCAASGSTFPSYAMGWYRPAPGKERELVAAINSGGGTNYADSVKGRFTISRDNAKNTVYLQMNSLKPEDTAVYYCAKSRYDYTKTEGGYWGQGTQVTVSS	low polyreactivity
QVQLVESGGGLVQEGGSLRLSCAASGRIFENNAMGWYRQAPGKERELVAAITSGGSTYYADSVKGRFTISRDNAKNTVYLQMNSLKPEDTAVYYCNVTFRVDPWTRTGYDYWGQGTQVTVST	high polyreactivity
QVQMQESGGGLVQAGGSLRLICAASGTISVHASMGWYRQAPGKERELVAGITDGANTYYADSVKGRFTISRDNSKNTVYLQMNSLKPEDTAVYYCAAYYGTEVHFTYWGQGTQVTVSS	low polyreactivity
QGQHVESGGGLVQAGGSLRLSCDASGSTIYQYAMGWYRQAPGKESELVAAISGISGSTSYADSVTGRFTISRDNAKNTVYLQMNSLKPEDTAVYDCAKGTAPIPYRGRVGTSKSDYWGQGTQVTVSS	low polyreactivity
QVQLVESGGGLVQAGGSLRLSCAASGYIFGGNAMGSYRPAPGNPRELVAAISSSSGGTYYADSVKGRFTISRDNAKNTVYLQMNSLKPEDTAVYYCAAAPVDYEYDYWGQGTQVTVSS	low polyreactivity
QVQLVESGGGLVQAGGSLRLSCAASGFIFGGNAMGWYRQAPGNERELVARISSGGITSYADSVKGRFTISRDNAKNSVYLQMYSLKPEDTAVYYCAADDYVSTQDDSYYEYDYWGQGTQVTVSS	low polyreactivity
